Data published in the DeepSol protein solubility set.

test: soluble on expression in E. coli; label from the status in PepcDB or PDB records

Sequence | soluble on expression in E. coli
MKAEGLSGGYGDSRLINNVSLTVEKGEFLGILGPNGSGKTTLLHLLTGTLPAKKGRVYLAGKLLADYKPKELAQIMAVLPQKMDQAFTFTVEETVAFGRYPFQTGLFRQQTEKGEAIVQEAMEQTGVADFAQKPIRELSGGEQQRVYLAQALAQQPRILFLDEPTNFLDLAYQKDLLDLIKRLTRESGLAAVSVFHDLNTASLYCDGLMFMKNGTAGPKQKPEYAVTEQSIKAVYDTDVTALVHQSSPKPMIVIQPEKDSVKRQSIPFEALLQAGRDDILLQTEIPLRTLSSTPIGAGFSWSRTLIHKRLPDQPDPIEGLTACLSESGFQLQETCAMASSERLDRFVYRTYEDGELSVFICVQTGFSIWILINGYAADQFFIKALMAAEAERTKVLGDGGGTGDILIAATQTQQSENIEQRLNQLIKKGTAECIKEAAELF | not soluble
MSLKTPIFAQQTDPALTSAVLGQTAALKKVHKDRKKTQEKIIAAEVAVTASLERIHHVEDKMLDYLSNAQGAMQNLYQIKRAGELVAKEIPQNCSLLLKSVGGNLKGTVIAAMVSDELTDAATQMTALFPFMKQLVTSGKYDVTGDDGKNEKHKVNLLNASERYYIANEVVSRLEAINTNLFILAWQVRTLSWNDLWFSLDPEGWANVMSGKNIIGGIISDWNQGYSLKEGHHHHHH | soluble
MSKSSNSDSQKSLPSPGHPSTGRPDLDLITDPLEEQRLEPQRDSHRSDTRGHPSTGRKSHNSTSAQSSVYNSRTDPENAAMDSDEELRKMMEGFVDDEESDPTYEPP | soluble
MGSDKIHHHHHHENLYFQGMTEKSQEPTAALDAEQVAAYLSQHPEFFVEHDELIPELRIPHQPGDAVSLVERQVRLLRERNIEMRHRLSQLMDVARENDRLFDKTRRLVLDLLDATSLEDVVSTVEDSLRHEFQVPYVSLILFSDSSVSVGRSVSSAEAHQAIGGLLSGGKTVCGVLRPHELAFLFGESDRDEIGSAAVVSLSFQGLHGVLAIGSPDPQHYKSSLGTLFLGYVAEVLARVLPRFSSPLRSVR | soluble
MQFYNRQKELKLMELLDQGKPSFFVITGKRRVGKTELIKQFTRNRKALYLFVDSNKSINILMDEFDRLLKEKLDLPDYIKVDEPENFLKFITSYDRDLVIAIDEFQRFQKVYPSFITQLQRYWDMKPDNCRIFLIVSGSSIGMIRKIFIEEQAPLFKRADNILTIKPFTVLETFEMLDGMGIKNPEEKLNLYFLFGGTVYYYRLFEKYQCTGFDDALEKLIFSEFAPLKNEVREILIEEFGKEHSTYYEIISAISQGRCSMSEISDMTHVSSSSLSPYFYDLIDLLGVVEHRIPVMDNPEKSKRGRYFLKDNFFRFYGRFIYPMYSRYMAGNYSPMLEKVRKEWQSYTGKIFEDIVHELLVEKMISDYPELGSWWNRKGDEIDILGVDHRGRKSLVIEVKNKELAENEAREILELTLDKTKLVKGISGQKLKVGIVAQKVKGRKNLEDDGFLVWELEELIPLEHHHHHH | not soluble
MAHHHHHHMTTVLNRRFDVLCHSGTCPSYLIDVLSLLVAHANDTELFKTELRKGDGGEFGAAATGAGSAHATSSTGPASRTDRAVGEARERQAADRRTQLMYKQVEDPEVLDDALRASHETVLIAAERSLQTYTEDLKHINDIAMATSAKQLRAMRVETQQQMEAFRDRVCGSVVAQTKEELEVMRSELAASVRADVSDMVRQLHQVSFSTQQQLQQLTSSYTDFVAQAHDALTLAPLADAYEAVKTVEYMQEQLKCIEAAATTRSDVETLEERLKDLESIVTTLGSVAKTPDVGAAAAAREGFSVNVPPPLSLSQQKPVLSNRSASHRSQTPKCTSPLPLHLHVSRSASAKGRPSSPPPASPGPPAQRTLAERLGVAVEAAEDGVVLAEVLPGSAAAAHRLGVGHIISHVGRTAVKTPAAFEEALRGIEGQAVKITAYDPFNGRVRVLTAQPL | not soluble
MGSDKIHHHHHHMGKLVVQGGAVLEGEVEISGSKNAALPIMAAAILCDEEVILKNVPRLQDVFVMIDILRSIGFRVEFEENELKIKRENDISQEVPYELVRKMRASFNVLGPIAVRTGRAKVALPGGCSIGVRPVDFHLEGLKKMGFSIKVEHGFVEACFERRIDYVTITLPFPSVGATEHLMTTAALLKGARVVIENAAMEPEIVDLQNFINRMGGHIEGAGTSRIVIEGVEKMQGVEYSIIPDRIEAGTYLVAIAASRGKGLVKNVNPDHLTNFFEKLEETGAKLKVLGNEVEIEMRERPKAVDVTTNPYPGFPTDLQPQMMAYLSTASGVSVITENVFKTRFLHVDELKRMGADIEVSGNVAIVKGVEKLSGAPVEGTDLRATAALLIAGIIADGVTEISNVEHIFRGYEDVIDKFSELGAKIEYVEKEN | not soluble
MPVNATGVSFSSFGISYHKDNSFRGTIRGKNDEVVKCSMGERSIRFNVNKFSGCILETVSRQSTKDIHGWVSDERTVYPSRVINQEIDNCCLQKNAKISSEERKMVFSLVSKEFELTLDVKAAQSSINHIIIGNASFGKKMDALCDGMSRAVKNSTTDYIANVLADKFYQKHIAPGVDIVKLRNEIPGYMSRVIQG | not soluble
MSDGKIIHDPVHGSMKIPEELIKLVDTPEIQRLRYIRQLGLANLVYPGANHSRFEHSLGVWYLAKKLSSELDIPRDEALLVQISALLHDIGHGPFSHTFERVYKERLKIGDHMEISRKIIEGKIDIVENGGEIPDIISDLGYSPKEVGELICGVHKKKYLSMIINGDIDVDQLDYLARDAHYTGVAHGIIDLERLLNVMKIHDNELVVDEKGLEAVEGMLVARSLMYSRVYFHRTVKIAEAMLIKGVEFALDSGELFDFWKMTDDRLIVELEDIGGFPSEIIQKIRRRELYKPAVIVGPQDLTGDERRIIASLYKNTKKIRELENELADRVGASEGEVIIELSVPELIISEPRLKQIEISILLGDGKKEPLTKVTPLASAIKRRQTPRWILIIATPPNYVEKVKSVWRKVIF | not soluble
TPNEMGYLHVIENLTKKRMTPLRPPTEKEAFKGQLSAAVETIESDLEENGLDKYLESAEALLEKYSATDLAALLLKTVAKDPADAVPVKITPERPLPSNKKGFNKNGR | not soluble
MSLTRQSLQQAAESRRSIYSLNKNLPVGKDEVVQIVEHAVLHTPSSFNSQSARVVVLFGEEHDKVWQFVEDALRAVVPADSFEPTAQKLNLFKAGAATILFYEDQNVVKGLQEQFPAYAANFPVWADQANAMVQYAVWTTLAAVGVGANLQHYNPLPDAAIAKAWNIPENWLLRAQMVIGGIEGAAGEKTFEPVAERLKVFGAEGGSHHHHHH | soluble
LRVRKAIIPAAGLGTRFLPATKAQPKEMLPIVDKPTIQYIVEEAIKSGIEDIIIISGRSKRAIEDHFDKSYELEQELEKKGNHDLLKLVQDISNLANIHYIRQKEAKGLGHAIYCAKSFIGNEPFAVLLGDDIVDSEVPCIKQLMDVYDKYRTTVLGVQKVPEDQVSKYGIVGGEIVSDRVYKVKDLVEKPDTASAPSNIAILGRYIITPRIFDYLENAKPGKGGEIQLTDALRELMGEEEMYAYDFIGKRYDVGNKLGFLQATVEFALARDDLKEEFEAYLKEIICKL | soluble
MSGVASGKTAIKSTAKVLSFVVQKHWATRLHYDFRLELEGTMKSWAVPKGPSFDPNDKRMAVHVEDHPISYNSFEGEIPSGQYGAGKVIIWDKGTWIPLEDPHKGYRDGKLKFELRGLKLKGHWALVRMRKEENKKQEPWLLIKEKDEYVRSSREYSVVDEMPDSVAELEHHHHHH | not soluble
MTVTFQNNPVSISGSFPKVGDRLPSFTLCGADLNDLSNEDFKGKKIVMSIFPSIDTPVCSKSVKVLQNALMTRNDTVLLCVSADLPFAMSRFCTEHAVANVTNASFFREPAFTERFGVNLNEGALRGLAARAVIVADEFGVITHSELVNEITNEPDYDRILMSL | not soluble
MGSDKIHHHHHHMFLDGEEGLIGYIIVTGTAGAGKSSLVGALADRITSLGANVATLNLDPAAEKLPYDPSVDARDYVSVAELMDKGLGPNGALVAAVDSLINHVLDIREEIDYYSPDYVVVDTPGQLELFAYRVGGPLVLRGIMGDYNGVNIFLIDSIFIDNAISLVSALLLASSVAVRLGLPQVNAVSKADMLLPEVREEVIPRLGEPGFLEFLLEKDKTYEGAGKALAEELARAIETTGFIGEVLQASVLEPETVTLLAAKAQQILAGGDDYKIYDITGQ | not soluble
QQMQAESGFVQHVGFKCDNCGIEPIQGVRWHCQDCPPEMSLDFCDSCSDCLHETDIHKEDHQLEPIYRS | soluble
MAHHHHHHMFGTPVENLTANQIKEELRTLYGVSDFSGCIEQKDLQEKLEKTRETELITHGLKYGPLLQIGNRQSPSGIVTLTHGLGDSANGWESVAVELSRRLPHLLFLLPTASMQPVGINGGAVMNSWYDIRNVSSGNGVTEDAEAIIMSANYLKSLAYTASRRYQVPAGRVVYAGFSQGAVISLAAGLTARIAPAGVAALSGYFAAAEKILPQLCNKSLPVLLCHGTMDNIIPFSAAEKTKETLESLGVGPVTLYSYPMEHSSHPKEINDLEKFLQQVLPGPSSKS | soluble
MKIAVVGGGIVGLSTAFELSSRGHSVHVFDPNPASGASHFAGGMLAPAAEVQFQQDPLFPLMKRAGKLWPDMVRRVAQRTNLPTGYRTEGTLVVAADRADAEHLKQLRATQEAAGMDVRPITTRQARGLEPALGPRLSAAVHIPNDTQVAPRVFLTALLDALDDCGVGVIKEKITDLEPLYQQFD | not soluble
MGSDKIHHHHHHDDDIIGALLEGKMPQATPVPPPTTVAATVASIDPPALKPAVDPRWVHLHNVHTGEKLEAVYWENGDYVPDAVSALDKVLRDYRNDEVHPIDRGLYDLLDQIARKTQSKGPFQVISGYRSPATNRLLSKRSGEVAKKSLHMDGKAMDIFLEDVELKHVRAAALDLSVGGVGYYPTSNFVHVDVGPVRKWTGT | not soluble
MSLGRKIKKETMIFPRYHQLRAVRELEDAARTEGPGHNYLVEHSAGSGKSNTIGWLAHRLASLHNESDHKVFDSVIVITDRRVLDRQLQDTIYQFEHRQGVVQKIDEDSRQLAEALTNSVPIIISTLQKFPFVARQLARMAEERREGADGILPTRRCAVIIDEAHSSQSGETATDLKEVLGGHVLREEAARYAVDEGVDNLDELYRSMAKRGRQTNLSFFAFTATPKHKTLAVFGRDEAGKAGQPFHRYTMSQAIEEGFIMDVLKNYTTYATYYKLVKASEDDPNVERKQAAKALARFMRLHPYNIAQKTEVMVEHFNAVTRHKVGGKAKAMVVTGSRLEAVRYKLAFDAYIREKGYSWIKTLVAFSGEVVDDELPGKTWTEVGMNGGIKEGVLPEKFDSSEYQVLLVAEKYQTGYDQPLLHTMYVDKRLAGIQAVQTLSRLNRMHPLKEDTFVLDFVNDRQEIKEAFKQYHEGAEMGEEADPNQMYAIKAELDASGIYLLEEMQRFIGIYFKPKQRQSPADHQAMNAALDPAVDRFRAVQEEDEEQAELWRGKLSAFRNLYAFLSQVAPYQDSDLERLYTFLRFLSPKLPKRTTGQRYSFDDEVRLEYYRLQKISEGSISLRDGKAELLDGPGEVGSGARHDEDVPLSSLIDVINERFGTDFTDADQLFFDQIIEAAMEDGSLLEAAAVNPEEKFALLFAGLLETLFIERMEQNEDIFARFMNERDFQSLVSKWISGKVYARLREGHHHHHH | not soluble
GSHMNRFLTSIVAWLRAGYPEGIPPTDSFAVLALLCRRLSHDEVKAVANELMRLGDFDQIDIGVVITHFTDELPSPEDVERVRARLAAQGWPLDDVRDREEHA | soluble
QVKLLESGPELVKPGASVKMSCKASGYTFTSYVMHWVKQKPGQGLEWIGYINPYNDGTKYNEKFKGKATLTSDKSSSTAYMELSSLTSEDSAVYYCVRGGYRPYYAMDYWGQGTSVTVSSAKTTPPSVYPLAPGSAAQTNSMVTLGCLVKGYFPEPVTVTWNSGSLSSGVHTFPAVLQSDLYTLSSSVTVPSSTWPSETVTCNVAHPASSTKVDKKIVPRDCTSHHHHHH | soluble
